Source: patent publication US20260217863A1, “ANTIBODY OR PEPTIDE BINDING SPECIFICALLY TO RNASE A, IMMUNOASSAY DEVICE AND METHOD FOR DETECTING RNASE A, AND METHOD FOR COLLECTING RNASE A” (UIF (University Industry Foundation), Yonsei University, priority 2022, published 2026)

Target: Ribonuclease A (Type II-A) from bovine pancreas (bovine) (UniProt P61823)
Assay: cell-based or functional assay

Chain of Ribonuclease A (Type II-A) from bovine pancreas (bovine) (P61823 27-150): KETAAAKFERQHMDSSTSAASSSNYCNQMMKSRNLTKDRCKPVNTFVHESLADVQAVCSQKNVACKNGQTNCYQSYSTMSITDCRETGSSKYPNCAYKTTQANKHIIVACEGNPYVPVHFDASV

Row | IC50 for RNase A activity inhibition, HeLa total RNA cleavage, agarose gel image [nM] | inhibition level, RNA probe assay (fluorophore and quencher), inhibitor at 1 µM [%] | Substance
1 | 381 | 27.2 | RNaseOUT recombinant ribonuclease inhibitor
2 | 257 | 35.8 | Biofact RNase inhibitor
